# Experimental data reported in the supplement of paper PMC10567573.
# B1: TRAF3IP2 (parent)
# chain: FMEKRNQWLVSQLSAASPDTGHDS
# B2: FAM50A (parent)
# chain: KALEILRKDFSELRSAGVEQLMYI
# Variants of: B1
# Test: protein stability index of a GFP-peptide fusion (GPS, HEK-293T) (PSI 1-6); higher = more stable
# Settings: c terminus: a fixed tail appended
# 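Note: lentivirally expressed fusions sorted by FACS into six bins by GFP to DsRed ratio, PSI derived from sequencing read proportions per bin multiplied by bin number.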
row,Variant,protein stability index
1,FMEKRNQWLVSQLSAASPDTGIDS [H22I],1.95
2,FMEKRNQWLVSQLSAASPDTGWDS [H22W],2.05
3,FMEKRNQWLVSQLSAASPDTGEDS [H22E],3.38

# Variants of: B2
# Test: as above
# Settings: c terminus: a fixed tail appended
row,Variant,protein stability index
1,KALEILSKDFSELRSAGVEQLMYI [R7S],2.59
2,KALEILTKDFSELRSAGVEQLMYI [R7T],2.91
3,KALEILPKDFSELRSAGVEQLMYI [R7P],2.28
4,KALEILHKDFSELRSAGVEQLMYI [R7H],2.58
5,KALEILEKDFSELRSAGVEQLMYI [R7E],1.54
6,KALEILLKDFSELRSAGVEQLMYI [R7L],3.87
7,KALEILFKDFSELRSAGVEQLMYI [R7F],3.25
8,KALEILIKDFSELRSAGVEQLMYI [R7I],2.18
9,KALEILAKDFSELRSAGVEQLMYI [R7A],1.25
10,AALEILRKDFSELRSAGVEQLMYI [K1A],3.07
11,TALEILRKDFSELRSAGVEQLMYI [K1T],1.91
12,DALEILRKDFSELRSAGVEQLMYI [K1D],1.28
13,PALEILRKDFSELRSAGVEQLMYI [K1P],2.04
14,MALEILRKDFSELRSAGVEQLMYI [K1M],3.33
15,YALEILRKDFSELRSAGVEQLMYI [K1Y],3.42
16,NALEILRKDFSELRSAGVEQLMYI [K1N],1.86
17,QALEILRKDFSELRSAGVEQLMYI [K1Q],1.78
18,EALEILRKDFSELRSAGVEQLMYI [K1E],1.88
19,VALEILRKDFSELRSAGVEQLMYI [K1V],1.18
20,KALEILRKMFSELRSAGVEQLMYI [D9M],2.56
21,KALEILRKAFSELRSAGVEQLMYI [D9A],2.4
22,KALEILRKFFSELRSAGVEQLMYI [D9F],2.6
23,KALEILRKQFSELRSAGVEQLMYI [D9Q],1.2

row,Variant,protein stability index
1,KALEILRKSFSELRSAGVEQLMYI [D9S],3.85
2,KALEILRKCFSELRSAGVEQLMYI [D9C],2.89
3,KALEILRKVFSELRSAGVEQLMYI [D9V],2.25
4,KALEILRKEFSELRSAGVEQLMYI [D9E],3.81
5,KALEILRKLFSELRSAGVEQLMYI [D9L],1.57
6,KALETLRKDFSELRSAGVEQLMYI [I5T],2.4
7,KALEFLRKDFSELRSAGVEQLMYI [I5F],1.5
8,KALECLRKDFSELRSAGVEQLMYI [I5C],2.39
9,KALEYLRKDFSELRSAGVEQLMYI [I5Y],2.52
10,KALEWLRKDFSELRSAGVEQLMYI [I5W],2.75
11,KALEMLRKDFSELRSAGVEQLMYI [I5M],3.79
12,KALEKLRKDFSELRSAGVEQLMYI [I5K],1.69
13,KALEHLRKDFSELRSAGVEQLMYI [I5H],3.56
14,KALEPLRKDFSELRSAGVEQLMYI [I5P],1.78
15,KALEDLRKDFSELRSAGVEQLMYI [I5D],1.55
16,KALEILRNDFSELRSAGVEQLMYI [K8N],3.03
17,KALEILRRDFSELRSAGVEQLMYI [K8R],4.36
18,KALEILRFDFSELRSAGVEQLMYI [K8F],3.19
19,KALEILRLDFSELRSAGVEQLMYI [K8L],4.84
20,KALEILRWDFSELRSAGVEQLMYI [K8W],3.31
21,KALEILRIDFSELRSAGVEQLMYI [K8I],2.27
22,KALEILRDDFSELRSAGVEQLMYI [K8D],2.16
23,KALEILRGDFSELRSAGVEQLMYI [K8G],3.52

row,Variant,protein stability index
1,KALEILRKDASELRSAGVEQLMYI [F10A],1.74
2,KALEILRKDMSELRSAGVEQLMYI [F10M],2.52
3,KALEILRKDNSELRSAGVEQLMYI [F10N],2.32
4,KALEILRKDHSELRSAGVEQLMYI [F10H],3.24
5,KANEILRKDFSELRSAGVEQLMYI [L3N],1.5
6,KAREILRKDFSELRSAGVEQLMYI [L3R],2.52
7,KAKEILRKDFSELRSAGVEQLMYI [L3K],2.58
8,KAHEILRKDFSELRSAGVEQLMYI [L3H],1.57
9,KAPEILRKDFSELRSAGVEQLMYI [L3P],2.77
10,KAMEILRKDFSELRSAGVEQLMYI [L3M],2.02
11,KACEILRKDFSELRSAGVEQLMYI [L3C],3.15
12,KADEILRKDFSELRSAGVEQLMYI [L3D],1.73
13,KATEILRKDFSELRSAGVEQLMYI [L3T],1.84
14,KDLEILRKDFSELRSAGVEQLMYI [A2D],3.3
15,KFLEILRKDFSELRSAGVEQLMYI [A2F],2.4
16,KVLEILRKDFSELRSAGVEQLMYI [A2V],1.49
17,KSLEILRKDFSELRSAGVEQLMYI [A2S],2.96
18,KCLEILRKDFSELRSAGVEQLMYI [A2C],4.79
19,KRLEILRKDFSELRSAGVEQLMYI [A2R],3.76
20,KPLEILRKDFSELRSAGVEQLMYI [A2P],1.95
21,KNLEILRKDFSELRSAGVEQLMYI [A2N],1.04
22,KKLEILRKDFSELRSAGVEQLMYI [A2K],1.75
23,KWLEILRKDFSELRSAGVEQLMYI [A2W],2.73

row,Variant,protein stability index
1,KHLEILRKDFSELRSAGVEQLMYI [A2H],1.48
2,KLLEILRKDFSELRSAGVEQLMYI [A2L],1.15
3,KALEINRKDFSELRSAGVEQLMYI [L6N],1.74
4,KALEIVRKDFSELRSAGVEQLMYI [L6V],2.36
5,KALEIDRKDFSELRSAGVEQLMYI [L6D],2
6,KALEIKRKDFSELRSAGVEQLMYI [L6K],1.09
7,KALEISRKDFSELRSAGVEQLMYI [L6S],2.27
8,KALEITRKDFSELRSAGVEQLMYI [L6T],1.85
9,KALEIERKDFSELRSAGVEQLMYI [L6E],2.13
10,KALEIPRKDFSELRSAGVEQLMYI [L6P],2.03
11,KALEIRRKDFSELRSAGVEQLMYI [L6R],1.89
12,KALEIFRKDFSELRSAGVEQLMYI [L6F],2.24
13,KALEIQRKDFSELRSAGVEQLMYI [L6Q],2.51
14,KALEIARKDFSELRSAGVEQLMYI [L6A],1.41
15,KALEIHRKDFSELRSAGVEQLMYI [L6H],1.55
16,KALEIGRKDFSELRSAGVEQLMYI [L6G],1.57
17,KALFILRKDFSELRSAGVEQLMYI [E4F],3.86
18,KALVILRKDFSELRSAGVEQLMYI [E4V],2.21
19,KALPILRKDFSELRSAGVEQLMYI [E4P],2.74
20,KALKILRKDFSELRSAGVEQLMYI [E4K],2.34
21,KALDILRKDFSELRSAGVEQLMYI [E4D],1.62
22,KALIILRKDFSELRSAGVEQLMYI [E4I],2.76
